Test results from the RNAGym collection of RNA variant scans (doi:10.7554/elife.80360).

B1: Twister Ribozyme (parent)
chain: AACACUGCCAAUGCCGGUCCCAAGCCCGGAUAAAAGUGGAGGGGGCGG

Variants of: B1
Test: self-cleavage, relative activity (ratio to wild type); higher = more cleavage; co-transcriptional
AACACUGCAAAUGCCGGUCCCAAGCCCAGAUAAAAGUGGAGGGGGCGG [C9A G28A] gave a self-cleavage of 0.598. AACACUGCAAAUGCCGGUCCCAAGCCCCGAUAAAAGUGGAGGGGGCGG [C9A G28C] gave a self-cleavage of 0.636. For AACACUGCAAAUGCCGGUCCCAAGCCCUGAUAAAAGUGGAGGGGGCGG [C9A G28U], the self-cleavage was 0.53. For AACACUGCAAAUGCCGGUCCCAAGCCCGGAUAAAACUGGAGGGGGCGG [C9A G36C], the self-cleavage was 0.107. Variant AACACUGCAAAUGCCGGUCCCAAGCCCGGAUAAAAGUAGAGGGGGCGG [C9A G38A] has a self-cleavage of 0.393. In the case of AACACUGCAAAUGCCGGUCCCAAGCCCGGAUAAAAGUCGAGGGGGCGG [C9A G38C], the self-cleavage is reported as 0.589. With AACACUGCAAAUGCCGGUCCCAAGCCCGGAUAAAAGUGAAGGGGGCGG [C9A G39A] the self-cleavage was 0.167. Work on AACACUGCAAAUGCCGGUCCCAAGCCCGGAUAAAAGUGUAGGGGGCGG [C9A G39U] yielded a self-cleavage of 0.131. For AACACUGCAAAUGCCGGUCCCAAGCCCGGAUAAAAGUGGAAGGGGCGG [C9A G41A], the self-cleavage was 0.145. AACACUGCAAAUGCCGGUCCCAAGCCCGGAUAAAAGUGGACGGGGCGG [C9A G41C] gave a self-cleavage of 0.123. AACACUGCAAAUGCCGGUCCCAAGCCCGGAUAAAAGUGGAGCGGGCGG [C9A G42C] showed a self-cleavage of 0.288. Variant AACACUGCAAAUGCCGGUCCCAAGCCCGGAUAAAAGUGGAGGAGGCGG [C9A G43A] has a self-cleavage of 0.153. Work on AACACUGCAAAUGCCGGUCCCAAGCCCGGAUAAAAGUGGAGGUGGCGG [C9A G43U] yielded a self-cleavage of 0.149. Work on AACACUGCAAAUGCCGGUCCCAAGCCCGGAUAAAAGUGGAGGGAGCGG [C9A G44A] yielded a self-cleavage of 0.664. In the case of AACACUGCAAAUGCCGGUCCCAAGCCCGGAUAAAAGUGGAGGGCGCGG [C9A G44C], the self-cleavage is reported as 0.425. Work on AACACUGCAAAUGCCGGUCCCAAGCCCGGAUAAAAGUGGAGGGGACGG [C9A G45A] yielded a self-cleavage of 0.41. AACACUGCAAAUGCCGGUCCCAAGCCCGGAUAAAAGUGGAGGGGCCGG [C9A G45C] showed a self-cleavage of 0.131. Variant AACACUGCAAAUGCCGGUCCCAAGCCCGGAUAAAAGUGGAGGGGGCGA [C9A G48A] has a self-cleavage of 0.357. For AACACUGCAAAUGCCGGUCCCAAGCCCGGAUAAAAGUGGAGGGGGCGC [C9A G48C], the self-cleavage was 0.541. In the case of AACACUGCAAAUGCCGGUCCCAAGCCCGGAUAAAAGUGGAGGGGGCGU [C9A G48U], the self-cleavage is reported as 0.451. For AACACUGCAAACGCCGGUCCCAAGCCCGGAUAAAAGUGGAGGGGGCGG [C9A U12C], the self-cleavage was 0.795. Variant AACACUGCAAAUGCCGGACCCAAGCCCGGAUAAAAGUGGAGGGGGCGG [C9A U18A] has a self-cleavage of 0.0887. With AACACUGCAAAUGCCGGCCCCAAGCCCGGAUAAAAGUGGAGGGGGCGG [C9A U18C] the self-cleavage was 0.0799. In the case of AACACUGCAAAUGCCGGUCCCAAGCCCGGAAAAAAGUGGAGGGGGCGG [C9A U31A], the self-cleavage is reported as 0.72. In the case of AACACUGCAAAUGCCGGUCCCAAGCCCGGAUAAAAGCGGAGGGGGCGG [C9A U37C], the self-cleavage is reported as 0.16. Work on AACACUGCGAAUGCCGGUCCCAAGCCCGGAUAAAAGUGGAGGGGGCGG [C9G] yielded a self-cleavage of 0.733. AACACUGCGACUGCCGGUCCCAAGCCCGGAUAAAAGUGGAGGGGGCGG [C9G A11C] showed a self-cleavage of 0.764. Variant AACACUGCGAAUGCCGGUCCCCAGCCCGGAUAAAAGUGGAGGGGGCGG [C9G A22C] has a self-cleavage of 0.708. In the case of AACACUGCGAAUGCCGGUCCCGAGCCCGGAUAAAAGUGGAGGGGGCGG [C9G A22G], the self-cleavage is reported as 0.0988. Work on AACACUGCGAAUGCCGGUCCCUAGCCCGGAUAAAAGUGGAGGGGGCGG [C9G A22U] yielded a self-cleavage of 0.187. Work on AACACUGCGAAUGCCGGUCCCAGGCCCGGAUAAAAGUGGAGGGGGCGG [C9G A23G] yielded a self-cleavage of 0.0809. Variant AACACUGCGAAUGCCGGUCCCAUGCCCGGAUAAAAGUGGAGGGGGCGG [C9G A23U] has a self-cleavage of 0.0839. AACACUGCGAAUGCCGGUCCCAAGCCCGGCUAAAAGUGGAGGGGGCGG [C9G A30C] gave a self-cleavage of 0.649. With AACACUGCGAAUGCCGGUCCCAAGCCCGGUUAAAAGUGGAGGGGGCGG [C9G A30U] the self-cleavage was 0.62. With AACACUGCGAAUGCCGGUCCCAAGCCCGGAUUAAAGUGGAGGGGGCGG [C9G A32U] the self-cleavage was 0.517. AACACUGCGAAUGCCGGUCCCAAGCCCGGAUAAUAGUGGAGGGGGCGG [C9G A34U] showed a self-cleavage of 0.47. For AACACUGCGAAUGCCGGUCCCAAGCCCGGAUAAAGGUGGAGGGGGCGG [C9G A35G], the self-cleavage was 0.591. For AACACUGCGAAUGCCGGUCCCAAGCCCGGAUAAAUGUGGAGGGGGCGG [C9G A35U], the self-cleavage was 0.695. Variant AACACUGCGAAUGACGGUCCCAAGCCCGGAUAAAAGUGGAGGGGGCGG [C9G C14A] has a self-cleavage of 0.536. With AACACUGCGAAUGUCGGUCCCAAGCCCGGAUAAAAGUGGAGGGGGCGG [C9G C14U] the self-cleavage was 0.624. With AACACUGCGAAUGCUGGUCCCAAGCCCGGAUAAAAGUGGAGGGGGCGG [C9G C15U] the self-cleavage was 0.479. AACACUGCGAAUGCCGGUCUCAAGCCCGGAUAAAAGUGGAGGGGGCGG [C9G C20U] showed a self-cleavage of 0.23. AACACUGCGAAUGCCGGUCCGAAGCCCGGAUAAAAGUGGAGGGGGCGG [C9G C21G] showed a self-cleavage of 0.115. Variant AACACUGCGAAUGCCGGUCCUAAGCCCGGAUAAAAGUGGAGGGGGCGG [C9G C21U] has a self-cleavage of 0.0793. In the case of AACACUGCGAAUGCCGGUCCCAAGACCGGAUAAAAGUGGAGGGGGCGG [C9G C25A], the self-cleavage is reported as 0.0478. AACACUGCGAAUGCCGGUCCCAAGGCCGGAUAAAAGUGGAGGGGGCGG [C9G C25G] showed a self-cleavage of 0.0708. AACACUGCGAAUGCCGGUCCCAAGUCCGGAUAAAAGUGGAGGGGGCGG [C9G C25U] showed a self-cleavage of 0.194. Variant AACACUGCGAAUGCCGGUCCCAAGCACGGAUAAAAGUGGAGGGGGCGG [C9G C26A] has a self-cleavage of 0.115. With AACACUGCGAAUGCCGGUCCCAAGCGCGGAUAAAAGUGGAGGGGGCGG [C9G C26G] the self-cleavage was 0.083. Work on AACACUGCGAAUGCCGGUCCCAAGCUCGGAUAAAAGUGGAGGGGGCGG [C9G C26U] yielded a self-cleavage of 0.0719. Work on AACACUGCGAAUGCCGGUCCCAAGCCAGGAUAAAAGUGGAGGGGGCGG [C9G C27A] yielded a self-cleavage of 0.098. Work on AACACUGCGAAUGCCGGUCCCAAGCCGGGAUAAAAGUGGAGGGGGCGG [C9G C27G] yielded a self-cleavage of 0.0899. AACACUGCGAAUGCCGGUCCCAAGCCUGGAUAAAAGUGGAGGGGGCGG [C9G C27U] showed a self-cleavage of 0.326. Variant AACACUGCGAAUGCCGGUCCCAAGCCCGGAUAAAAGUGGAGGGGGGGG [C9G C46G] has a self-cleavage of 0.576.
